Source: article PMC10511561, “Synergism between CMG helicase and leading strand DNA polymerase at replication fork” (Nature Communications, 2023)

T1: Mcm4 (subunit of CMG) (yeast, UniProt P30665 1-933)
T1 construct: Mcm4, yeast; Chain of m1 as it stands in the replisome structure; source: yeast strain yJCZ2, purified as part of CMG (anti-FLAG M2 resin, Mono Q, Superose 6)
T1 sequence: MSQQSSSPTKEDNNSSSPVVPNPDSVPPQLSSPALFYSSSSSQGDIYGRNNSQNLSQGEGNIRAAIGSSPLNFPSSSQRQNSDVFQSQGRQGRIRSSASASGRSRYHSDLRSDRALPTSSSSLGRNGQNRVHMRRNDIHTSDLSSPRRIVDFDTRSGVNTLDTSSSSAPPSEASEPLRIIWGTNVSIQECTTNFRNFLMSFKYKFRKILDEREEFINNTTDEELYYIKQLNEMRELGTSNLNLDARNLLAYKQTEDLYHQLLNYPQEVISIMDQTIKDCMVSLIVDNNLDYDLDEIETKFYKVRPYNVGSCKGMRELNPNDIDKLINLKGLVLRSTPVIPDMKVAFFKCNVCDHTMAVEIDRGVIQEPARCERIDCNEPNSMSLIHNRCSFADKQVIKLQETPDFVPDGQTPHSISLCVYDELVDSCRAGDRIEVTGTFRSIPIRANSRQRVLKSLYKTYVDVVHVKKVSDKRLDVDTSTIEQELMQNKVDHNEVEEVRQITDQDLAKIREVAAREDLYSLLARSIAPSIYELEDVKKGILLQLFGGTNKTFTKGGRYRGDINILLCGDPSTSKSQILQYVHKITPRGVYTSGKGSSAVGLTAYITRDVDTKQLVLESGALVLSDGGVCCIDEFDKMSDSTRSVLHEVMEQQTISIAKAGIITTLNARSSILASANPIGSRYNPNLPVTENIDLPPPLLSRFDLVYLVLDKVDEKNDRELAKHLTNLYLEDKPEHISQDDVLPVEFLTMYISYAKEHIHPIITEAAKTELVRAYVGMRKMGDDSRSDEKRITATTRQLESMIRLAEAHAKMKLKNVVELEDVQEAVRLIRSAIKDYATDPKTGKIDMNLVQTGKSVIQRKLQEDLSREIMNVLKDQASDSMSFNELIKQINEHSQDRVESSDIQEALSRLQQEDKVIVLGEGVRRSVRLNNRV


Tests used:
Experiment in all cases: cryo-EM structure; replisome assembled at room temperature from 0.7 uM CMG, forked DNA and ATPγS, then 1.5 molar excess of Polε, Ctf4, Tof1-Csm3; 100 mM KCl, 25 mM HEPES pH 7.6, 4 mM MgCl2, 4 mM ATPγS; 10-30% glycerol gradient with glutaraldehyde fixation; States I-VI by 3D classification
Mcm4 (subunit of CMG) = biological target: T1, Mcm4 (subunit of CMG); conditions: both partners purified
Tof1-Csm3 = biological target: T2, Tof1-Csm3 (yeast, UniProt P53840 1-1238; Q04659 1-317); conditions: both partners purified
T2 construct: Tof1, yeast; Csm3, yeast; Purified beforehand as one complex; also called Tof1 and Csm3; components of the fork protection complex (FPC); source: yeast strain yAE48, galactose-induced, purified (calmodulin resin, TEV elution, Mono Q, Superose 6); not shown: CBP, N-terminal, cleaved

Mcm3 (subunit of CMG) = biological target: T3, Mcm3 (subunit of CMG) (yeast, UniProt P24279 1-971); conditions: both partners purified
T3 construct: Mcm3, yeast; Chain of m1 as it stands in the replisome structure; source: yeast strain yJCZ2, purified as part of CMG (anti-FLAG M2 resin, Mono Q, Superose 6)

[1] = biological target: the molecule itself

T3 sequence (P24279 whole entry): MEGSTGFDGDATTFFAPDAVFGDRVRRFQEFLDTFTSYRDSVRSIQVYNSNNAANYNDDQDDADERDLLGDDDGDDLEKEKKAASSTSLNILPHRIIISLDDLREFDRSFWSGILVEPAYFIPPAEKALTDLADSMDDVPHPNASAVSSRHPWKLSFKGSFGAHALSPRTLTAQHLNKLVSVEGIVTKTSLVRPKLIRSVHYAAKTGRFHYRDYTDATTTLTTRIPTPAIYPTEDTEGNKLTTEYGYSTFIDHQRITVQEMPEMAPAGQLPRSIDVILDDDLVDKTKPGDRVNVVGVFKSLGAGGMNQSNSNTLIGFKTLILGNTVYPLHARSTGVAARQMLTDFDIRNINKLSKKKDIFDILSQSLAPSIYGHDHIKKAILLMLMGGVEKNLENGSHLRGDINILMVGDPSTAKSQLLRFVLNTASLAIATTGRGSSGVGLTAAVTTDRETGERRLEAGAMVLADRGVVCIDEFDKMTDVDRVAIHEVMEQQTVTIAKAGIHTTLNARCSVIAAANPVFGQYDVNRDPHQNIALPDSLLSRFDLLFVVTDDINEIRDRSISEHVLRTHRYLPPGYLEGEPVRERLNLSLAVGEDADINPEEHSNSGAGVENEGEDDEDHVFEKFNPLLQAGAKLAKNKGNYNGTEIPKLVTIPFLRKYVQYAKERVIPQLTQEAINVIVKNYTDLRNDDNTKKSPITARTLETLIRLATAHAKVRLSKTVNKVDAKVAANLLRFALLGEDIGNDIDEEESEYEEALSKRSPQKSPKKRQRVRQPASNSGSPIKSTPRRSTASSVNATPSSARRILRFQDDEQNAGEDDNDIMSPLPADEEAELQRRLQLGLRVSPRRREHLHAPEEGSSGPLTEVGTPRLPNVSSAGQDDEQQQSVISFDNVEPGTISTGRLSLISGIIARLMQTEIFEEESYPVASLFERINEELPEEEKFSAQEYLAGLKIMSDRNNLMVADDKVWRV
T2 sequence (P53840 whole entry, chain 1 of 2): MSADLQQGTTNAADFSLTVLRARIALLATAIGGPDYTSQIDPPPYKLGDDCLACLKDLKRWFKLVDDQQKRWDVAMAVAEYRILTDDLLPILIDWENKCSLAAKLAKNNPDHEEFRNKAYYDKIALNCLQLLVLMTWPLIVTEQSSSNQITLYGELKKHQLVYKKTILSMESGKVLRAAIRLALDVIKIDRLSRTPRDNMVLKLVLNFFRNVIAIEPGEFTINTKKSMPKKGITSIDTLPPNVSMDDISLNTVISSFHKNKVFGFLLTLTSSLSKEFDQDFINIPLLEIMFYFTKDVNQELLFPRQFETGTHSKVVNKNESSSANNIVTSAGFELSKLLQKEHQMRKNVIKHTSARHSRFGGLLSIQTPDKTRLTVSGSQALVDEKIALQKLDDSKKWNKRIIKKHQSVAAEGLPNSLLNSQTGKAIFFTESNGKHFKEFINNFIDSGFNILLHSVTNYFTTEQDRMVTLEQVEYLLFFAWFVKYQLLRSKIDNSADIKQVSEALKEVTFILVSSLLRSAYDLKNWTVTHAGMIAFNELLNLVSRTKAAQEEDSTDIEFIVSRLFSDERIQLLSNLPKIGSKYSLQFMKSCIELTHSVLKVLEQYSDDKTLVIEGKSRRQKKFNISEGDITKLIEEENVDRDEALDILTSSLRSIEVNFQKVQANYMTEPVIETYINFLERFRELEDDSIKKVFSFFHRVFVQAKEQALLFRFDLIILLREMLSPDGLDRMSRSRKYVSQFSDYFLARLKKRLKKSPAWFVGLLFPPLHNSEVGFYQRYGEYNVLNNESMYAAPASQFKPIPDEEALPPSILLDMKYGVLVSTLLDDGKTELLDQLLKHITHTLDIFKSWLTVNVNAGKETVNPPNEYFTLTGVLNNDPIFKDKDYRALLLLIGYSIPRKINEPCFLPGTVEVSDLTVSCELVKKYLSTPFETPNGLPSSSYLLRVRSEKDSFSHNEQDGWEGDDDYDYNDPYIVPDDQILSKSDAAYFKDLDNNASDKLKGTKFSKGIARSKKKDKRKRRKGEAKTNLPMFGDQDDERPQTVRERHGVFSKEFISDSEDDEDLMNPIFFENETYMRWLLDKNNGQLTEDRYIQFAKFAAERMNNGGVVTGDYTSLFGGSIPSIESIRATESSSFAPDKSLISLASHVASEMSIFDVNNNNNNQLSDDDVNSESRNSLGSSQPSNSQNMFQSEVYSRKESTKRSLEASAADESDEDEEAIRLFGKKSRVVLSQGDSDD
T2 sequence (Q04659 whole entry, chain 2 of 2): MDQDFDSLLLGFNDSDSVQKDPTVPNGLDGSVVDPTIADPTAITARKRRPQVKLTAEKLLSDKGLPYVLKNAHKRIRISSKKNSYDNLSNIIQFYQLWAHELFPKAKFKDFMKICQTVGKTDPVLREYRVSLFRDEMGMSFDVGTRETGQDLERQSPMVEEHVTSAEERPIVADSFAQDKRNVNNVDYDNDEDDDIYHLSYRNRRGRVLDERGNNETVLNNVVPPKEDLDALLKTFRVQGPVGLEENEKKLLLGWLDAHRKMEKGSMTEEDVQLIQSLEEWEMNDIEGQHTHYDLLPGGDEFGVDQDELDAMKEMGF

| Binder | binding result (Mcm4 (subunit of CMG)) | binding result (Tof1-Csm3) | binding result (Mcm3 (subunit of CMG)) | stoichiometry N [1] |
| --- | --- | --- | --- | --- |
| Mcm7 (subunit of CMG) (natural protein, yeast, Mcm7, yeast; Chain of m1 as it stands in the replisome structure; source: yeast strain yJCZ2, purified as part of CMG (anti-FLAG M2 resin, Mono Q, Superose 6)) MSAALPSIQLPVDYNNLFNEITDFLVTFKQDTLSSDATRNENEDENLDAENIEQHLLEKGPKYMAMLQKVANRELNSVIIDLDDILQYQNEKFLQGTQADDLVSAIQQNANHFTELFCRAIDNNMPLPTKEIDYKDDVLDVILNQRRLRNERMLSDRTNEIRSENLMDTTMDPPSSMNDALREVVEDETELFPPNLTRRYFLYFKPLSQNCARRYRKKAISSKPLSVRQIKGDFLGQLITVRGIITRVSDVKPAVEVIAYTCDQCGYEVFQEVNSRTFTPLSECTSEECSQNQTKGQLFMSTRASKFSAFQECKIQELSQQVPVGHIPRSLNIHVNGTLVRSLSPGDIVDVTGIFLPAPYTGFKALKAGLLTETYLEAQFVRQHKKKFASFSLTSDVEERVMELITSGDVYNRLAKSIAPEIYGNLDVKKALLLLLVGGVDKRVGDGMKIRGDINVCLMGDPGVAKSQLLKAICKISPRGVYTTGKGSSGVGLTAAVMKDPVTDEMILEGGALVLADNGICCIDEFDKMDESDRTAIHEVMEQQTISISKAGINTTLNARTSILAAANPLYGRYNPRLSPLDNINLPAALLSRFDILFLMLDIPSRDDDEKLAEHVTYVHMHNKQPDLDFTPVEPSKMREYIAYAKTKRPVMSEAVNDYVVQAYIRLRQDSKREMDSKFSFGQATPRTLLGIIRLSQALAKLRLADMVDIDDVEEALRLVRVSKESLYQETNKSKEDESPTTKIFTIIKKMLQETGKNTLSYENIVKTVRLRGFTMLQLSNCIQEYSYLNVWHLINEGNTLKFVDDGTMDTDQEDSLVSTPKLAPQTTASANVSAQDSDIDLQDA | binds | binds | binds | – |
| Ctf4 homotrimer (natural protein, yeast, Ctf4, yeast; also called Ctf4 trimer; source: E. coli BL21(DE3) Rosetta (pXZ1), purified (Ni-NTA, sumo protease, Ni-NTA, Mono Q, Superose 6)) MVSVIDKLVFDFGGKTLVSLAPDNNTLCVANKNGLTKILKTNNPEEEPETLDSSKLVSSIKCYSNSHFLMTTMQGDALRYNIDSSQEELLARFALPLRDCCVIHSGKMAVFGGDDLELILLELDDETHKKHAIKIDEQVSQISYNSQMNILAVSMINGKVQIFSLTSTIPNKVHELNDYIVANSYDDTHRDKILSNMMDDIDKDNDNDLSETADPDENNVADPEFCAANRICTRVAWHPKGLHFALPCADDTVKIFSIKGYSLQKTLSTNLSSTKAHFIDLQFDPLRGTYIAAVDLNNKLTVWNWETSEIHYTREFKRKITNIAWKIQADSKTLDLVLGTWSGSIAIVQNLAESVVSNIPDQSVAESSTKHGLFVDSESDLENLEGNDDINKSDKLFSDITQEANAEDVFTQTHDGPSGLSEKRKYNFEDEEDFIDDDDGAGYISGKKPHNEHSYSRVHKTHSFPISLANTGKFRYMPFSPAGTPFGFTDRRYLTMNEVGYVSTVKNSEQYSITVSFFDVGRFREYHFEDLFGYDLCFLNEKGTLFGQSKTGQIQYRPHDSIHSNWTKIIPLQAGERITSVAATPVRVIVGTSLGYFRSFNQFGVPFAVEKTSPIVALTAQNYRVFSVHYSQFHGLSYSLSELGTSSKRYYKRECPLPMSLPNINSDMKKDANLDYYNFNPMGIKSLFFSSYGDPCIFGSDNTLLLLSKWRSPEESKWLPILDSNMEIWKMSGGKETTDIHVWPLALAYDTLNCILVKGKHIWPEFPLPLPSEMEIRMPVFVKSKLLEENKAILNKKNEIGADTEAEEGEEDKEIQIPVSMAAEEEYLRSKVLSELLTDTLENDGEMYGNENEVLAALNGAYDKALLRLFASACSDQNVEKALSLAHELKQDRALTAAVKISERAELPSLVKKINNIREARYEQQLK | – | – | – | 3 |
